Laboratory results as given in patent publication US20240010750A1 (Bayer, published 2024).
Where two headings read alike, the source gives them in different places.

B1: TPP-14293 hIgG1 (antibody, V domains shown)
VH: EVQLLESGGGLVQPGGSLRLSCAASGFTFDDYAMSWVRQAPGKGLEWVSAIGTGGGTYYADSVKGRFTISRDNSKNTLYLQMNSLRAEDTAVYYCDREYYDSSGYYHLDYWGQGTLVTVSS
VL: QSVLTQPPSASGTPGQRVTISCTGSSSNIGATYDVHWYQQLPGTAPKLLIYSNNQRPSGVPDRFSGSKSGTSASLAISGLRSEDEADYYCAAWDWSLSGWVFGGGTKLTVLG
B2: TPP-14303 hIgG1 (antibody, V domains shown)
VH: EVQLLESGGGLVQPGGSLRLSCAASGFTFDDYAMSWVRQAPGKGLEWVSAIGTGGGTYYADSVKGRFTISRDNSKNTLYLQMNSLRAEDTAVYYCAREDYDSSGYYHLDYWGQGTLVTVSS
VL: QSVLTQPPSASGTPGQRVTISCTGSSSNIGATYDVHWYQQLPGTAPKLLIYSNNQRPSGVPDRFSGSKSGTSASLAISGLRSEDEADYYCAAWDWSLSGWVFGGGTKLTVLG
B3: TPP-17053 hIgG1 (antibody, V domains shown)
VH: EVQLLESGGGLVQPGGSLRLSCAASGFTFDDYAMSWVRQAPGKGLEWVSAIGSGGSTYYADSVKGRFTISRDNSKNTLYLQMNSLRAEDTAVYYCAREGYDSSGYYHLDYWGQGTLVTVSS
VL: QSVLTQPPSASGTPGQRVTISCTGSSSNIGATYDVHWYQQLPGTAPKLLIYSNNQRPSGVPDRFSGSKSGTSASLAISGLRSEDEADYYCAAWDWSLSGWVFGGGTKLTVLG
notes: Germline variant of TPP-14308
B4: TPP-14298 hIgG1 (antibody, V domains shown)
VH: EVQLLESGGGLVQPGGSLRLSCAASGFTFDDYAMSWVRQAPGKGLEWVSAIGTGGGTYYADSVKGRFTISRDNSKNTLYLQMNSLRAEDTAVYYCASEYYDSSGYYHLDYWGQGTLVTVSS
VL: QSVLTQPPSASGTPGQRVTISCTGSSSNIGATYDVHWYQQLPGTAPKLLIYSNNQRPSGVPDRFSGSKSGTSASLAISGLRSEDEADYYCAAWDWSLSGWVFGGGTKLTVLG

What was measured:
human alpha2-Antiplasmin [1] = target: T1, human alpha2-Antiplasmin (human, UniProt P08697 40-491); assay: ELISA, coated antigen, 1st exp.
T1 construct: Bought (antibodies online, ABIN2544306); also called human A2AP; a2AP
T1 sequence: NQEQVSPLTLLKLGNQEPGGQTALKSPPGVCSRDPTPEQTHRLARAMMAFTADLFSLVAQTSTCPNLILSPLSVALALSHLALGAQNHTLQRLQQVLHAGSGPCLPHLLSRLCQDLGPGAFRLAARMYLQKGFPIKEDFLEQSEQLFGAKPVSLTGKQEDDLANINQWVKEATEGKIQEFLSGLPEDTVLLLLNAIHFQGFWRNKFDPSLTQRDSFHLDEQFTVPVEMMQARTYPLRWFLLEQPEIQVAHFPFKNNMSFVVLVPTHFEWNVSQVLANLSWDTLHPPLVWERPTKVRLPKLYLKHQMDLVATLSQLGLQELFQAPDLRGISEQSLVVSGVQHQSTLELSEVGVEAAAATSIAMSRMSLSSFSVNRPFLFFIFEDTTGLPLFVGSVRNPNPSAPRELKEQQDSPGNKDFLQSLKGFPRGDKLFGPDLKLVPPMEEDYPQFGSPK
Procedure: (§1) A standard ELISA format was used for analyzing the binding affinity of Fabs of this invention to human and rabbit alpha-2-Antiplasmin, respectively. Antigens were coated to black 384 well Maxisorp microtiter plates (Nunc; catalogue number 460518), diluted to a concentration of 1 μg/ml in 1× Coating Buffer (Candor Bioscience; catalogue number 121125). Plates were incubated overnight at 4° C. After overnight incubation, plates were washed 2× with 50 μl/well using PBS+0.05% Tween 20. Following this, 50 μl/well of blocking buffer (Smart Block; Candor Bioscience; catalogue number 113500) was added and the plates were incubated for 1 hour at room temperature. Afterwards, plates were washed for 3× using […] PBS+0.05% Tween 20 buffer. Fabs of this invention were added at different concentrations in a final volume of 30 μl/well. Plates were incubated for 1 hour at room temperature. Following this incubation step, plates were washed for 3× using 50 μl/well of a PBS+0.05% Tween 20 buffer. For the detection of bound Fabs and full-length antibodies, the anti-Human Lambda Light Chains (Bound and Free)—Peroxidase antibody (Sigma; catalogue number A5175) was diluted by the factor of 1:10.000 in 10% Blocking Buffer. 30 μl/well of this diluted detection antibody was added and plates are incubated for 1 hour at room temperature. Following this incubation step, plates were washed for 3× using 50 μl/well of a PBS+0.05% Tween 20 buffer. As substrate, a mixture of 30 μl/well of 1:1000 diluted Amplex red (Invitrogen; catalogue number 12222; stock solution 10 mM in DMSO) and 1:10.000 of Hydrogen peroxide (Merck; catalogue number 107209; 30% stock solution) was added and the plates incubated for minutes in the dark.
(§2) For measurement, the Infinite f500 reader (Tecan) was used. Measurement mode: Fluorescence; Top reading; Ex 535 nm; Em 590 nm.
(§3) According to the methods described in Example 3 and Example 4, antibodies TPP-14323, TPP-14318, TPP-14314, TPP-14313, TPP-14308, TPP-14305, TPP-14303, TPP-14298, and TPP-14293 were tested for their ability to bind to and to block the activity of human alpha2-Antiplasmin in a dose-dependent manner. For each antibody, one dose response curve from two to three independent experiments performed in quadruplicate is shown as example in FIG. 7.1 to FIG. 7.18. (see Table 3.3)

human alpha2-Antiplasmin [2] = target: T1, human alpha2-Antiplasmin; assay: cell-based or functional assay
human alpha2-Antiplasmin [3] = target: T1, human alpha2-Antiplasmin; assay: cell-based or functional assay; remark: listed apart in the source
human alpha2-Antiplasmin [4] = target: T1, human alpha2-Antiplasmin; assay: ELISA, coated antigen, 2nd exp.
Procedure: as §1, §2, §3

human Plasmin = human Plasmin (human, UniProt P00747 97-580; P00747 581-810, limits assumed); assay: cell-based or functional assay
human alpha2-Antiplasmin [5] = target: T1, human alpha2-Antiplasmin; assay: ELISA, coated antigen, 3rd exp.
Procedure: as §1, §2, §3

human alpha2-Antiplasmin [6] = target: T1, human alpha2-Antiplasmin; assay: cell-based or functional assay; remark: listed apart in the source
human alpha2-Antiplasmin [7] = target: T1, human alpha2-Antiplasmin; assay: ELISA, coated antigen, 3rd exp.; 3rd exp.
Procedure: as §1, with “30 μl/well of this diluted detection antibody was added and plates are incubated for 1 hour at room temperature. Following this incubation step, plates were washed for 3× using 50 μl/well of a PBS+0.05% Tween 20 buffer. As substrate, a mixture of 30 μl/well of 1:1000 diluted Amplex red (Invitrogen; catalogue number 12222; stock solution 10 mM in DMSO) and 1:10.000 of Hydrogen peroxide (Merck; catalogue number 107209; 30% stock solution) was added and the plates incubated for minutes in the dark.” left out
(§4) For measurement, the Infinite f500 reader (Tecan) was used. Measurement mode: Fluorescence; Top reading; Ex 535 nm; Em 590 nm. […]

human alpha2-Antiplasmin [8] = target: T1, human alpha2-Antiplasmin; assay: ELISA, coated antigen, quantified unpurified antibody, 1st exp.
human alpha2-Antiplasmin [9] = target: T1, human alpha2-Antiplasmin; assay: cell-based or functional assay; remark: listed apart in the source
human alpha2-Antiplasmin [10] = target: T1, human alpha2-Antiplasmin; assay: SPR Biacore T200, antibody captured on protein G chip, A2AP as analyte, 25 C
Procedure: (§5) Binding assays were performed on a Biacore T200 instrument at 25° C. with a protein G sensor chip and assay buffer HBS-EP+. Antibodies were captured to ˜150 RU and analytes were used at concentrations between 1.56 and 200 nM for full kinetics. As interaction partner, alpha2-Antiplasmin from human, cynomolgus and rabbit was used. Regeneration was performed with glycine-HCl pH 1.5. Kinetic parameters were derived by fitting experimental sensorgrams to a 1:1 Langmuir binding model.

[11] = target: T2, rabbit alpha2-Antiplasmin (rabbit (Oryctolagus cuniculus)); assay: as above
T2 construct: Made in house in HEK293 cells, purified by Ni-IMAC and SEC (a His tag is implied but not described); also called rabbit A2AP; Oryctolagus cuniculus A2AP
T2 chain: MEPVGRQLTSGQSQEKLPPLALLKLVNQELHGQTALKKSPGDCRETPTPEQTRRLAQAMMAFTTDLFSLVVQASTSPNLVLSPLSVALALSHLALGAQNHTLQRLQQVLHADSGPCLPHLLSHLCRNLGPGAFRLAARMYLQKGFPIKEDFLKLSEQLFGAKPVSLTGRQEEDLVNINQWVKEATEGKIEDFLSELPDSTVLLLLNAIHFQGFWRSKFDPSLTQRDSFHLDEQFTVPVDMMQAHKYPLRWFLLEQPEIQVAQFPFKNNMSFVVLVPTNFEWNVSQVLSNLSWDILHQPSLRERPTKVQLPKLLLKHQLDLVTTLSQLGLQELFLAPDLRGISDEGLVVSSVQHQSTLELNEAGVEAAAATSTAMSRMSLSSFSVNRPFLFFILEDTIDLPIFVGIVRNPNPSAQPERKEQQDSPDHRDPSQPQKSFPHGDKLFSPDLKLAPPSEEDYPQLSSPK
Procedure: as §5

[12] = target: T3, cynomolgus alpha2-Antiplasmin (cynomolgus (Macaca fascicularis), UniProt P08697 28-491 (human entry)); assay: as above
T3 construct: Made in house in the same way as the rabbit protein; also called cynomolgus A2AP; Macaca fascicularis A2AP
T3 chain: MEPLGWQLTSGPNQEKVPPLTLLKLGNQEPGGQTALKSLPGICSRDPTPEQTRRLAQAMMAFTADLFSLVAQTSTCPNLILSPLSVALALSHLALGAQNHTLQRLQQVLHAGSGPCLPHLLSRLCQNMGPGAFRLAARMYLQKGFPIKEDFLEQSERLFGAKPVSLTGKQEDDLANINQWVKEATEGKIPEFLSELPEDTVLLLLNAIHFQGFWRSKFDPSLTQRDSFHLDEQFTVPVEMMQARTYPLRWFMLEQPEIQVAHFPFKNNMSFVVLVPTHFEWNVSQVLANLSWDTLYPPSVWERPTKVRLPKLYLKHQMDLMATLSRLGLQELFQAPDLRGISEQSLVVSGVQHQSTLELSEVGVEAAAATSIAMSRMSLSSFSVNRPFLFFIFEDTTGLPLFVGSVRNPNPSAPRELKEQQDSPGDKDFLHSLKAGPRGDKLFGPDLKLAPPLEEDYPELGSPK
Procedure: as §5

human alpha2-Antiplasmin [13] = target: T1, human alpha2-Antiplasmin; assay: cell-based or functional assay; remark: listed apart in the source
human alpha2-Antiplasmin [14] = target: T1, human alpha2-Antiplasmin; assay: ELISA (Example 3), human alpha2-Antiplasmin coated, RFU
Procedure: as §1, with “As substrate, a mixture of 30 μl/well of 1:1000 diluted Amplex red (Invitrogen; catalogue number 12222; stock solution 10 mM in DMSO) and 1:10.000 of Hydrogen peroxide (Merck; catalogue number 107209; 30% stock solution) was added and the plates incubated for minutes in the dark.” left out
as §2
According to the method described in Example 3, these 12 antibodies were tested for ability to bind human and rabbit alpha2-Antiplasmin in a dose-dependent manner. Data generated were analyzed using the GraphPadPrism software. The binding activities of the antibodies were calculated as EC50 values. […]

human alpha2-Antiplasmin [15] = target: T1, human alpha2-Antiplasmin; assay: ELISA, coated antigen, quantified unpurified antibody, 3rd exp.
Procedure: as §1, §2

human alpha2-Antiplasmin [16] = target: T1, human alpha2-Antiplasmin; assay: ELISA, coated antigen, quantified unpurified antibody, 2nd exp.
human alpha2-Antiplasmin [17] = target: T1, human alpha2-Antiplasmin; assay: cell-based or functional assay; remark: listed apart in the source
human alpha2-Antiplasmin [18] = target: T1, human alpha2-Antiplasmin; assay: ELISA, coated antigen, 1st exp.; 1st exp.
Procedure: as §1, with “30 μl/well of this diluted detection antibody was added and plates are incubated for 1 hour at room temperature. Following this incubation step, plates were washed for 3× using 50 μl/well of a PBS+0.05% Tween 20 buffer. As substrate, a mixture of 30 μl/well of 1:1000 diluted Amplex red (Invitrogen; catalogue number 12222; stock solution 10 mM in DMSO) and 1:10.000 of Hydrogen peroxide (Merck; catalogue number 107209; 30% stock solution) was added and the plates incubated for minutes in the dark.” left out
as §4

human alpha2-Antiplasmin [19] = target: T1, human alpha2-Antiplasmin; assay: cell-based or functional assay; remark: listed apart in the source

Sequence of human Plasmin (P00747 97-580 limits assumed, chain 1 of 2): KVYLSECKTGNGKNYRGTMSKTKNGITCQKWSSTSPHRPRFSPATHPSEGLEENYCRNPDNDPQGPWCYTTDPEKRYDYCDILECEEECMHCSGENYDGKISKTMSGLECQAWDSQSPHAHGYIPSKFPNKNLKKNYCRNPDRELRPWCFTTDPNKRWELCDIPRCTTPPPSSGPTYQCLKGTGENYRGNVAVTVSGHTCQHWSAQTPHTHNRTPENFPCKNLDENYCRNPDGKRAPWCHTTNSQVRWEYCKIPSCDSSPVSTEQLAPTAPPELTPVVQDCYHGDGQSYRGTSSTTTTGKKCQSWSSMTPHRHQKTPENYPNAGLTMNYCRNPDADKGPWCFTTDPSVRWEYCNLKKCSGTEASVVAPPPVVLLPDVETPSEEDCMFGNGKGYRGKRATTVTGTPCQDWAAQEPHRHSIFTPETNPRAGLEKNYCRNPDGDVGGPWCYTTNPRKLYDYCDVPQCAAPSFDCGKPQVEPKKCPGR
Sequence of human Plasmin (P00747 581-810 limits assumed, chain 2 of 2): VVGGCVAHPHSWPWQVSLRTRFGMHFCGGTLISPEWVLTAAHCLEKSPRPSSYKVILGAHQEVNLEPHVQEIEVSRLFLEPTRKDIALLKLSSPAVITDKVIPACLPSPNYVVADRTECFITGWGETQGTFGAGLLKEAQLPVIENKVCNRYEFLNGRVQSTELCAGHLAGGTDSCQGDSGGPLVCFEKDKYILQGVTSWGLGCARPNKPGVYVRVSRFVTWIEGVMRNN

| Binder | EC50 (human alpha2-Antiplasmin [1]) [nM] | function blocking activity [IC50 M], 1st exp. (human alpha2-Antiplasmin [2]) [nM] | function blocking activity [IC50 M], 2nd exp. (human alpha2-Antiplasmin [2]) [nM] | function blocking activity [IC50 M], 3rd exp. (human alpha2-Antiplasmin [2]) [nM] | EC50 (human alpha2-Antiplasmin [4]) [nM] | IC50 [M], inhibition of plasmin proteolytic activity (human Plasmin) [M] | EC50 (human alpha2-Antiplasmin [5]) [nM] | further results |
| --- | --- | --- | --- | --- | --- | --- | --- | --- |
| B1 | 12 | 46 | 48 | 50 | 12 | > 5e-06 | 12 | EC50 (read off the curve); function blocking assay (Example 4), RFU of plasmin substrate cleavage (human alpha2-Antiplasmin [3]): ~50 nM |
| B2 | 24 | 85 | 89 | 94 | 29 | > 1e-05 |  | EC50 (read off the curve); function blocking assay (Example 4), RFU of plasmin substrate cleavage (human alpha2-Antiplasmin [6]): ~80 nM; EC50 (human alpha2-Antiplasmin [7]): 27 nM |
| B3 |  |  |  |  |  | > 1e-05 |  | EC50 (human alpha2-Antiplasmin [8]): 0.52 nM; EC50 (read off the curve); function blocking assay (Example 4), RFU of plasmin substrate cleavage (human alpha2-Antiplasmin [9]): ~0.4 nM; Kd (human alpha2-Antiplasmin [10]): 11 nM; Kd [11]: 28 nM; Kd [12]: 8.7 nM; function blocking activity [IC50 M], 1st exp. (human alpha2-Antiplasmin [13]): 0.43 nM; function blocking activity [IC50 M], 2nd exp. (human alpha2-Antiplasmin [13]): 0.65 nM; function blocking activity [IC50 M], 3rd exp. (human alpha2-Antiplasmin [13]): 0.5 nM; EC50 (read off the curve) (human alpha2-Antiplasmin [14]): ~0.5 nM; EC50 (human alpha2-Antiplasmin [15]): 0.63 nM; EC50 (human alpha2-Antiplasmin [16]): 0.58 nM; IC50, A2AP function blocking assay (Example 10) (human alpha2-Antiplasmin [17]): 0.15 nM |
| B4 |  | 31 | 37 | 40 | 62 | > 5e-06 | 58 | EC50 (human alpha2-Antiplasmin [18]): 5.7 nM; EC50 (read off the curve); function blocking assay (Example 4), RFU of plasmin substrate cleavage (human alpha2-Antiplasmin [19]): ~30 nM |
